Source: US10172953B2, “XTEN conjugate compositions and methods of making same” (Amunix Operating Inc., priority 2012, dated 2019)
Where two headings read alike, the source gives them in different places. Numbered stars: 1 amine (or outer) side, 2 acyl side, 3 side chain; on linkers, the order of the positions; unused ones are H or OH. Square brackets hold non-standard residues; d marks the D form. Side chains are listed from the residue outwards. Ends that are not written are not given here. Peptide text beside a SMILES is read from it. * marks the point of attachment. Ethylenediamine = C(CN[*:2])N[*:1]; Hyp = O=C(O)[C@@H]1C[C@@H](O)CN1; Phg = N[C@H](C(=O)O)c1ccccc1; CO = O=C([*:1])[*:2]; Bn = c1ccc(C*)cc1

Columns and labels:
[1] = cited from earlier work
[2] = cited from earlier work; remark: listed apart in the source
[3] = Analytical size exclusion chromatography (apparent MW, hydrodynamic radius); format: physicochemical; conditions: for Apparent MW / RH (hydrodynamic radius): SEC; for Apparent Molecular Weight Factor: ratio of apparent molecular weight to calculated molecular weight
Procedure: Size exclusion chromatography analyses were performed on fusion proteins containing various therapeutic proteins and unstructured recombinant proteins of increasing length. […] Chromatogram profiles were monitored using OD214 nm and OD280 nm.

[4] = cited from earlier work; remark: listed apart in the source
[5] = biological target: human recombinant GLP-2 glucagon family receptor (human) (UniProt O95838); experiment: cell-based or functional assay
[6] = unmodified peptide/protein, humans/patients
[7] = unmodified peptide (GLP-1: biological half-life)
[8] = unmodified peptide/protein, humans (oxyntomodulin: in human plasma; ghrelin: terminal half-life)

Chain of UniProt O95838 (O95838 whole entry): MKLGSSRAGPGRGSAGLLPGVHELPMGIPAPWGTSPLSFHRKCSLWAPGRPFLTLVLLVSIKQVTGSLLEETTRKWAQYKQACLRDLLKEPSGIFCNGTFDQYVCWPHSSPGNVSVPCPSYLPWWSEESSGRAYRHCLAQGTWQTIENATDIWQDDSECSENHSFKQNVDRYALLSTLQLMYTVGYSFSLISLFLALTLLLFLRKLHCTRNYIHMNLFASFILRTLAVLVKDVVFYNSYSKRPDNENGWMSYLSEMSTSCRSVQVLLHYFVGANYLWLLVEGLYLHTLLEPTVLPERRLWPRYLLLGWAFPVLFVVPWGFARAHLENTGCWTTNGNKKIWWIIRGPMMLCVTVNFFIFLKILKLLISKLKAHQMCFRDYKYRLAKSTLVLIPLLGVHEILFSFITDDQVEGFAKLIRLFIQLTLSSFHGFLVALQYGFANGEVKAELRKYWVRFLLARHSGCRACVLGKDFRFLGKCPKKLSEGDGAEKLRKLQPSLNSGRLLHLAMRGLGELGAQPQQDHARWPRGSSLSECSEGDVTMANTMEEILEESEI

Molecule: NCCCC[C@@H]1NC(=O)[C@@H](Cc2c[nH]c3ccccc23)NC(=O)[C@H](c2ccccc2)NC(=O)[C@@H]2C[C@@H](OC(=O)NCCN)CN2C(=O)[C@H](Cc2ccccc2)NC(=O)[C@H](Cc2ccc(OCc3ccccc3)cc2)NC1=O [Pasireotide, [(3S,6S,9S,12R,15S,18S,20R)-9-(4-aminobutyl)-3-benzyl-12-(1H-indol-3-ylmethyl)-2,5,8,11,14,17-hexaoxo-15-phenyl-6-[(4-phenylmethoxyphenyl)methyl]-1,4,7,10,13,16-hexazabicyclo[16.3.0]henicosan-20-yl] N-(2-aminoethyl)carbamate, reference compound] (cyclo([Hyp]([CO-Ethylenediamine])[Phg][dW]KY(Bn)F))
- half-life [1, 6]: 12 to 17 h

Molecule: CC(C)[C@H]1C(=O)N[C@@H](CCCN=C(N)N)C(=O)NCC(=O)N[C@@H](CC(=O)O)C(=O)N[C@H](Cc2ccccc2)C(=O)N1C [cilengitide, 2-[(2S,5R,8S,11S)-5-benzyl-11-{3-[(diaminomethylidene)amino]propyl}-7-methyl-3,6,9,12,15-pentaoxo-8-(propan-2-yl)-1,4,7,10,13-pentaazacyclopentadecan-2-yl]acetic acid, reference compound]
- maximum drug concentration (poor solubility) [2]: ≤ 15 mg/mL
- half-life [1, 6]: 3 to 5 h

Molecule: AC616: fusion: XTEN AE864, GLP2-2G
- Apparent MW [3]: 1427 kDa
- RH (hydrodynamic radius) [3]: 10 nm
- Apparent Molecular Weight Factor [3]: 17.2

Molecule: C-peptide: human pancreatic protein, middle segment of proinsulin (SEQ ID NO: 556) (EAEDLQVGQVELGGGPGAGSLQPLALEGSLQ; listed as Homo sapiens)
- half-life ([1]; unmodified peptide, humans): about 30 minutes

Molecule: CNP-22
- half-life ([4]; unmodified peptide/protein (Fxa: plasma half-life)): 2.6 min

Molecule: GHRH: 44-amino acid peptide hormone (SEQ ID NO: 542)
- half-life [4, 7]: less than 15 minutes

Molecule: GLP-(7-37)OH: form of human glucagon like peptide-1 (HAEGTFTSDVSSTLEGQAALEFIAWLVKGRG; listed as Homo sapiens)
- half-life [4, 7]: 3 to 5 min

Molecule: IL-7: human interleukin encoded by the IL7 gene (SEQ ID NO: 562)
- half-life [1, 6]: approximately 10 h

Molecule: POT4: synthetic cyclic peptide H-Ile-[Cys-Val-Val-Gln-Asp-Trp-Gly-His-His-Arg-Cys]-Thr-NH2, C3 complement inhibitor [reference compound]
- circulating in vivo half-life ([4]; in vivo): 8 h

Molecule: enfuvirtide
- half-life [1, 6]: 3.8 h

Molecule: ghrelin: human hormone GSSFLSPEHQRVQQRKESKKPPAKLQPR (SEQ ID NO: 557) (listed as Homo sapiens)
- half-life ([1]; human, in vivo): 0.167 to 0.5 h

Molecule: metreleptin: the commercially available form of leptin [reference compound]
- half-life [1, 8]: 0.13 to 0.5 h

Molecule: oxyntomodulin: 37 amino acid peptide (SEQ ID NO: 552)
- half-life ([1]; human, in vivo): ~0.2 h

Molecule: relaxin
- half-life [1, 8]: less than 10 min

Molecule: α-MSH: 13-amino acid peptide N-Ac-SYSMGFRWGLPV (SEQ ID NO: 564) (not fully specified; printed as N-Ac-SYSMGFRWGLPV; ends and bridges not checked)
- half-life ([4]; unmodified form, in words): mere seconds

B1: Glucagon-Y288: fusion protein of glucagon plus XTEN Y288 (protein)
chain: HSQGTFTSDYSKYLDSRRAQDFVQWLMNTGEGSGEGSEGEGSEGSGEGEGSEGSGEGEGGSEGSEGEGGSEGSEGEGGSEGSEGEGSGEGSEGEGGSEGSEGEGSGEGSEGEGSEGGSEGEGGSEGSEGEGSGEGSEGEGGEGGSEGEGSEGSGEGEGSGEGSEGEGSEGSGEGEGSGEGSEGEGSEGSGEGEGSEGSGEGEGGSEGSEGEGSEGSGEGEGGEGSGEGEGSGEGSEGEGGGEGSEGEGSGEGGEGEGSEGGSEGEGGSEGGEGEGSEGSGEGEGSEGGSEGEGSEGGSEGEGSEGSGEGEGSEGSGE
- Apparent MW [3]: 370 kDa
- RH (hydrodynamic radius) [3]: 7.0 nm
- Apparent Molecular Weight Factor [3]: 12.9

B2: Endostatin: 20-kDa C-terminal fragment derived from type XVIII collagen (SEQ ID NO: 565) (protein, listed as Homo sapiens)
chain: HSHRDFQPVLHLVALNSPLSGGMRGIRGADFQCFQQARAVGLAGTFRAFLSSRLQDLYSIVRRADRAAVPIVNLKDELLFPSWEALFSGSEGPLKPGARIFSFDGKDVLRHPTWPQKSVWHGSDPNGRRLTESYCETWRTEAPSATGQASSLLGGRLLGQSAASCHHAYIVLCIENSFMTASK
- half-life [1, 6]: 13 h

B3: AC404: fusion: XTEN AE864, FVII (protein)
chain: AVFVTQEEAHGVLHRRRRANAFLEELRPGSLERECKEEQCSFEEAREIFKDAERTKLFWISYSDGDQCASSPCQNGGSCKDQLQSYICFCLPAFEGRNCETHKDDQLICVNENGGCEQYCSDHTGTKRSCRCHEGYSLLADGVSCTPTVEYPCGKIPILEKRNASKPQGRIVGGKVCPKGECPWQVLLLVNGAQLCGGTLINTIWVVSAAHCFDKIKNWRNLIAVLGEHDLSEHDGDEQSRRVAQVIIPSTYVPGTTNHDIALLRLHQPVVLTDHVVPLCLPERTFSERTLAFVRFSLVSGWGQLLDRGATALELMVLNVPRLMTQDCLQQSRKVGDSPNITEYMFCAGYSDGSKDSCKGDSGGPHATHYRGTWYLTGIVSWGQGCATVGHFGVYTRVSQYIEWLQKLMRSEPRPGVLLRAPFPGSPGSPAGSPTSTEEGTSESATPESGPGTSTEPSEGSAPGSPAGSPTSTEEGTSTEPSEGSAPGTSTEPSEGSAPGTSESATPESGPGSEPATSGSETPGSEPATSGSETPGSPAGSPTSTEEGTSESATPESGPGTSTEPSEGSAPGTSTEPSEGSAPGSPAGSPTSTEEGTSTEPSEGSAPGTSTEPSEGSAPGTSESATPESGPGTSTEPSEGSAPGTSESATPESGPGSEPATSGSETPGTSTEPSEGSAPGTSTEPSEGSAPGTSESATPESGPGTSESATPESGPGSPAGSPTSTEEGTSESATPESGPGSEPATSGSETPGTSESATPESGPGTSTEPSEGSAPGTSTEPSEGSAPGTSTEPSEGSAPGTSTEPSEGSAPGTSTEPSEGSAPGTSTEPSEGSAPGSPAGSPTSTEEGTSTEPSEGSAPGTSESATPESGPGSEPATSGSETPGTSESATPESGPGSEPATSGSETPGTSESATPESGPGTSTEPSEGSAPGTSESATPESGPGSPAGSPTSTEEGSPAGSPTSTEEGSPAGSPTSTEEGTSESATPESGPGTSTEPSEGSAPGTSESATPESGPGSEPATSGSETPGTSESATPESGPGSEPATSGSETPGTSESATPESGPGTSTEPSEGSAPGSPAGSPTSTEEGTSESATPESGPGSEPATSGSETPGTSESATPESGPGSPAGSPTSTEEGSPAGSPTSTEEGTSTEPSEGSAPGTSESATPESGPGTSESATPESGPGTSESATPESGPGSEPATSGSETPGSEPATSGSETPGSPAGSPTSTEEGTSTEPSEGSAPGTSTEPSEGSAPGSEPATSGSETPGTSESATPESGPGTSTEPSEGSAPGSSS
- Apparent MW [3]: 1900 kDa
- RH (hydrodynamic radius) [3]: 10.1 nm
- Apparent Molecular Weight Factor [3]: 14.7

B4: conjugate GLP2-2G-XTEN (protein, part only; not given: added cysteine position, not shown: small tags and cut ends)
peptide, part: HGDGSFSDEMNTILDNLAARDFINWLIQTKITD
chain: GSPGSPAGSPTSTEEGTSESATPESGPGTSTEPSEGSAPGSPAGSPTSTEEGTSTEPSEGSAPGTSTEPSEGSAPGTSESATPESGPGSEPATSGSETPGSEPATSGSETPGSPAGSPTSTEEGTSESATPESGPGTSTEPSEGSAPGTSTEPSEGSAPGSPAGSPTSTEEGTSTEPSEGSAPGTSTEPSEGSAPGTSESATPESGPGTSTEPSEGSAPGTSESATPESGPGSEPATSGSETPGTSTEPSEGSAPGTSTEPSEGSAPGTSESATPESGPGTSESATPESGPGSPAGSPTSTEEGTSESATPESGPGSEPATSGSETPGTSESATPESGPGTSTEPSEGSAPGTSTEPSEGSAPGTSTEPSEGSAPGTSTEPSEGSAPGTSTEPSEGSAPGTSTEPSEGSAPGSPAGSPTSTEEGTSTEPSEGSAPGTSESATPESGPGSEPATSGSETPGTSESATPESGPGSEPATSGSETPGTSESATPESGPGTSTEPSEGSAPGTSESATPESGPGSPAGSPTSTEEGSPAGSPTSTEEGSPAGSPTSTEEGTSESATPESGPGTSTEPSEGSAPGTSESATPESGPGSEPATSGSETPGTSESATPESGPGSEPATSGSETPGTSESATPESGPGTSTEPSEGSAPGSPAGSPTSTEEGTSESATPESGPGSEPATSGSETPGTSESATPESGPGSPAGSPTSTEEGSPAGSPTSTEEGTSTEPSEGSAPGTSESATPESGPGTSESATPESGPGTSESATPESGPGSEPATSGSETPGSEPATSGSETPGSPAGSPTSTEEGTSTEPSEGSAPGTSTEPSEGSAPGSEPATSGSETPGTSESATPESGPGTSTEPSEGSAPGR
modifications: N-terminal alpha-amino group modified with sulfo-SMCC and linked to GLP2-Cys; added cysteine thiol linked through the sulfo-SMCC cross-linker (maleimide) to the N-terminal alpha-amino group of the XTEN chain
- GPCR Ca2+ flux mobilization, EC50 [5]: 529 nM

B5: AC398: fusion: XTEN AE288, FVII (protein)
chain: AVFVTQEEAHGVLHRRRRANAFLEELRPGSLERECKEEQCSFEEAREIFKDAERTKLFWISYSDGDQCASSPCQNGGSCKDQLQSYICFCLPAFEGRNCETHKDDQLICVNENGGCEQYCSDHTGTKRSCRCHEGYSLLADGVSCTPTVEYPCGKIPILEKRNASKPQGRIVGGKVCPKGECPWQVLLLVNGAQLCGGTLINTIWVVSAAHCFDKIKNWRNLIAVLGEHDLSEHDGDEQSRRVAQVIIPSTYVPGTTNHDIALLRLHQPVVLTDHVVPLCLPERTFSERTLAFVRFSLVSGWGQLLDRGATALELMVLNVPRLMTQDCLQQSRKVGDSPNITEYMFCAGYSDGSKDSCKGDSGGPHATHYRGTWYLTGIVSWGQGCATVGHFGVYTRVSQYIEWLQKLMRSEPRPGVLLRAPFPGSPGTSESATPESGPGSEPATSGSETPGTSESATPESGPGSEPATSGSETPGTSESATPESGPGTSTEPSEGSAPGSPAGSPTSTEEGTSESATPESGPGSEPATSGSETPGTSESATPESGPGSPAGSPTSTEEGSPAGSPTSTEEGTSTEPSEGSAPGTSESATPESGPGTSESATPESGPGTSESATPESGPGSEPATSGSETPGSEPATSGSETPGSPAGSPTSTEEGTSTEPSEGSAPGTSTEPSEGSAPGSEPATSGSETPGTSESATPESGPGTSTEPSEGSAPGSSS
- Apparent MW [3]: 650 kDa
- RH (hydrodynamic radius) [3]: 8.2 nm
- Apparent Molecular Weight Factor [3]: 8.5
